Experimental data as given in US20220064312A1.

B1: h10A11 IGKV4-1/IGHV3-73 T31A (antibody, name in Kabat numbering, V domains shown)
VH: EVQLVESGGGLVQPGGSLKLSCAASGFAFNAYALYWVRQASGKGLEWVGRIRSKSNNYATYYADSVKDRFTISRDDSKNTAYLQMNSLKTEDTAVYYCTRARFYYSDYGYAMDYWGQGTLVTVSS
VL: DIVMTQSPDSLAVSLGERATINCRSSKSLLHSNGNTYLYWYQQKPGQPPKLLIYRMSNLASGVPDRFSGSGSGTDFTLTISSLQAEDVAVYYCMQHLEYPLTFGQGTKLEIKR
B2: h10A11 IGKV4-1/IGHV3-73 Y32F (antibody, name in Kabat numbering, V domains shown)
VH: EVQLVESGGGLVQPGGSLKLSCAASGFAFNTFALYWVRQASGKGLEWVGRIRSKSNNYATYYADSVKDRFTISRDDSKNTAYLQMNSLKTEDTAVYYCTRARFYYSDYGYAMDYWGQGTLVTVSS
VL: DIVMTQSPDSLAVSLGERATINCRSSKSLLHSNGNTYLYWYQQKPGQPPKLLIYRMSNLASGVPDRFSGSGSGTDFTLTISSLQAEDVAVYYCMQHLEYPLTFGQGTKLEIKR
B3: h10A11 IGKV4-1/IGHV3-73 A33V (antibody, name in Kabat numbering, V domains shown)
VH: EVQLVESGGGLVQPGGSLKLSCAASGFAFNTYVLYWVRQASGKGLEWVGRIRSKSNNYATYYADSVKDRFTISRDDSKNTAYLQMNSLKTEDTAVYYCTRARFYYSDYGYAMDYWGQGTLVTVSS
VL: DIVMTQSPDSLAVSLGERATINCRSSKSLLHSNGNTYLYWYQQKPGQPPKLLIYRMSNLASGVPDRFSGSGSGTDFTLTISSLQAEDVAVYYCMQHLEYPLTFGQGTKLEIKR
B4: h10A11 IGKV4-1/IGHV3-73 L34I (antibody, name in Kabat numbering, V domains shown)
VH: EVQLVESGGGLVQPGGSLKLSCAASGFAFNTYAIYWVRQASGKGLEWVGRIRSKSNNYATYYADSVKDRFTISRDDSKNTAYLQMNSLKTEDTAVYYCTRARFYYSDYGYAMDYWGQGTLVTVSS
VL: DIVMTQSPDSLAVSLGERATINCRSSKSLLHSNGNTYLYWYQQKPGQPPKLLIYRMSNLASGVPDRFSGSGSGTDFTLTISSLQAEDVAVYYCMQHLEYPLTFGQGTKLEIKR
B5: h10A11 IGKV4-1/IGHV3-73 Y35F (antibody, name in Kabat numbering, V domains shown)
VH: EVQLVESGGGLVQPGGSLKLSCAASGFAFNTYALFWVRQASGKGLEWVGRIRSKSNNYATYYADSVKDRFTISRDDSKNTAYLQMNSLKTEDTAVYYCTRARFYYSDYGYAMDYWGQGTLVTVSS
VL: DIVMTQSPDSLAVSLGERATINCRSSKSLLHSNGNTYLYWYQQKPGQPPKLLIYRMSNLASGVPDRFSGSGSGTDFTLTISSLQAEDVAVYYCMQHLEYPLTFGQGTKLEIKR
B6: h10A11 IGKV4-1/IGHV3-73 R50K (antibody, name in Kabat numbering, V domains shown)
VH: EVQLVESGGGLVQPGGSLKLSCAASGFAFNTYALYWVRQASGKGLEWVGKIRSKSNNYATYYADSVKDRFTISRDDSKNTAYLQMNSLKTEDTAVYYCTRARFYYSDYGYAMDYWGQGTLVTVSS
VL: DIVMTQSPDSLAVSLGERATINCRSSKSLLHSNGNTYLYWYQQKPGQPPKLLIYRMSNLASGVPDRFSGSGSGTDFTLTISSLQAEDVAVYYCMQHLEYPLTFGQGTKLEIKR
B7: h10A11 IGKV4-1/IGHV3-73 I51L (antibody, name in Kabat numbering, V domains shown)
VH: EVQLVESGGGLVQPGGSLKLSCAASGFAFNTYALYWVRQASGKGLEWVGRLRSKSNNYATYYADSVKDRFTISRDDSKNTAYLQMNSLKTEDTAVYYCTRARFYYSDYGYAMDYWGQGTLVTVSS
VL: DIVMTQSPDSLAVSLGERATINCRSSKSLLHSNGNTYLYWYQQKPGQPPKLLIYRMSNLASGVPDRFSGSGSGTDFTLTISSLQAEDVAVYYCMQHLEYPLTFGQGTKLEIKR
B8: h10A11 IGKV4-1/IGHV3-73 R52K (antibody, name in Kabat numbering, V domains shown)
VH: EVQLVESGGGLVQPGGSLKLSCAASGFAFNTYALYWVRQASGKGLEWVGRIKSKSNNYATYYADSVKDRFTISRDDSKNTAYLQMNSLKTEDTAVYYCTRARFYYSDYGYAMDYWGQGTLVTVSS
VL: DIVMTQSPDSLAVSLGERATINCRSSKSLLHSNGNTYLYWYQQKPGQPPKLLIYRMSNLASGVPDRFSGSGSGTDFTLTISSLQAEDVAVYYCMQHLEYPLTFGQGTKLEIKR
B9: h10A11 IGKV4-1/IGHV3-73 S52aT (antibody, name in Kabat numbering, V domains shown)
VH: EVQLVESGGGLVQPGGSLKLSCAASGFAFNTYALYWVRQASGKGLEWVGRIRTKSNNYATYYADSVKDRFTISRDDSKNTAYLQMNSLKTEDTAVYYCTRARFYYSDYGYAMDYWGQGTLVTVSS
VL: DIVMTQSPDSLAVSLGERATINCRSSKSLLHSNGNTYLYWYQQKPGQPPKLLIYRMSNLASGVPDRFSGSGSGTDFTLTISSLQAEDVAVYYCMQHLEYPLTFGQGTKLEIKR
B10: h10A11 IGKV4-1/IGHV3-73 K52bR (antibody, name in Kabat numbering, V domains shown)
VH: EVQLVESGGGLVQPGGSLKLSCAASGFAFNTYALYWVRQASGKGLEWVGRIRSRSNNYATYYADSVKDRFTISRDDSKNTAYLQMNSLKTEDTAVYYCTRARFYYSDYGYAMDYWGQGTLVTVSS
VL: DIVMTQSPDSLAVSLGERATINCRSSKSLLHSNGNTYLYWYQQKPGQPPKLLIYRMSNLASGVPDRFSGSGSGTDFTLTISSLQAEDVAVYYCMQHLEYPLTFGQGTKLEIKR
B11: h10A11 IGKV4-1/IGHV3-73 S52cT (antibody, name in Kabat numbering, V domains shown)
VH: EVQLVESGGGLVQPGGSLKLSCAASGFAFNTYALYWVRQASGKGLEWVGRIRSKTNNYATYYADSVKDRFTISRDDSKNTAYLQMNSLKTEDTAVYYCTRARFYYSDYGYAMDYWGQGTLVTVSS
VL: DIVMTQSPDSLAVSLGERATINCRSSKSLLHSNGNTYLYWYQQKPGQPPKLLIYRMSNLASGVPDRFSGSGSGTDFTLTISSLQAEDVAVYYCMQHLEYPLTFGQGTKLEIKR
B12: h10A11 IGKV4-1/IGHV3-73 N53Q (antibody, name in Kabat numbering, V domains shown)
VH: EVQLVESGGGLVQPGGSLKLSCAASGFAFNTYALYWVRQASGKGLEWVGRIRSKSQNYATYYADSVKDRFTISRDDSKNTAYLQMNSLKTEDTAVYYCTRARFYYSDYGYAMDYWGQGTLVTVSS
VL: DIVMTQSPDSLAVSLGERATINCRSSKSLLHSNGNTYLYWYQQKPGQPPKLLIYRMSNLASGVPDRFSGSGSGTDFTLTISSLQAEDVAVYYCMQHLEYPLTFGQGTKLEIKR
B13: h10A11 IGKV4-1/IGHV3-73 Y55F (antibody, name in Kabat numbering, V domains shown)
VH: EVQLVESGGGLVQPGGSLKLSCAASGFAFNTYALYWVRQASGKGLEWVGRIRSKSNNFATYYADSVKDRFTISRDDSKNTAYLQMNSLKTEDTAVYYCTRARFYYSDYGYAMDYWGQGTLVTVSS
VL: DIVMTQSPDSLAVSLGERATINCRSSKSLLHSNGNTYLYWYQQKPGQPPKLLIYRMSNLASGVPDRFSGSGSGTDFTLTISSLQAEDVAVYYCMQHLEYPLTFGQGTKLEIKR
B14: h10A11 IGKV4-1/IGHV3-73 A56V (antibody, name in Kabat numbering, V domains shown)
VH: EVQLVESGGGLVQPGGSLKLSCAASGFAFNTYALYWVRQASGKGLEWVGRIRSKSNNYVTYYADSVKDRFTISRDDSKNTAYLQMNSLKTEDTAVYYCTRARFYYSDYGYAMDYWGQGTLVTVSS
VL: DIVMTQSPDSLAVSLGERATINCRSSKSLLHSNGNTYLYWYQQKPGQPPKLLIYRMSNLASGVPDRFSGSGSGTDFTLTISSLQAEDVAVYYCMQHLEYPLTFGQGTKLEIKR
B15: h10A11 IGKV4-1/IGHV3-73 T57S (antibody, name in Kabat numbering, V domains shown)
VH: EVQLVESGGGLVQPGGSLKLSCAASGFAFNTYALYWVRQASGKGLEWVGRIRSKSNNYASYYADSVKDRFTISRDDSKNTAYLQMNSLKTEDTAVYYCTRARFYYSDYGYAMDYWGQGTLVTVSS
VL: DIVMTQSPDSLAVSLGERATINCRSSKSLLHSNGNTYLYWYQQKPGQPPKLLIYRMSNLASGVPDRFSGSGSGTDFTLTISSLQAEDVAVYYCMQHLEYPLTFGQGTKLEIKR
B16: h10A11 IGKV4-1/IGHV3-73 Y58F (antibody, name in Kabat numbering, V domains shown)
VH: EVQLVESGGGLVQPGGSLKLSCAASGFAFNTYALYWVRQASGKGLEWVGRIRSKSNNYATFYADSVKDRFTISRDDSKNTAYLQMNSLKTEDTAVYYCTRARFYYSDYGYAMDYWGQGTLVTVSS
VL: DIVMTQSPDSLAVSLGERATINCRSSKSLLHSNGNTYLYWYQQKPGQPPKLLIYRMSNLASGVPDRFSGSGSGTDFTLTISSLQAEDVAVYYCMQHLEYPLTFGQGTKLEIKR
B17: h10A11 IGKV4-1/IGHV3-73 Y59F (antibody, name in Kabat numbering, V domains shown)
VH: EVQLVESGGGLVQPGGSLKLSCAASGFAFNTYALYWVRQASGKGLEWVGRIRSKSNNYATYFADSVKDRFTISRDDSKNTAYLQMNSLKTEDTAVYYCTRARFYYSDYGYAMDYWGQGTLVTVSS
VL: DIVMTQSPDSLAVSLGERATINCRSSKSLLHSNGNTYLYWYQQKPGQPPKLLIYRMSNLASGVPDRFSGSGSGTDFTLTISSLQAEDVAVYYCMQHLEYPLTFGQGTKLEIKR
B18: h10A11 IGKV4-1/IGHV3-73 A60V (antibody, name in Kabat numbering, V domains shown)
VH: EVQLVESGGGLVQPGGSLKLSCAASGFAFNTYALYWVRQASGKGLEWVGRIRSKSNNYATYYVDSVKDRFTISRDDSKNTAYLQMNSLKTEDTAVYYCTRARFYYSDYGYAMDYWGQGTLVTVSS
VL: DIVMTQSPDSLAVSLGERATINCRSSKSLLHSNGNTYLYWYQQKPGQPPKLLIYRMSNLASGVPDRFSGSGSGTDFTLTISSLQAEDVAVYYCMQHLEYPLTFGQGTKLEIKR
B19: h10A11 IGKV4-1/IGHV3-73 D61E (antibody, name in Kabat numbering, V domains shown)
VH: EVQLVESGGGLVQPGGSLKLSCAASGFAFNTYALYWVRQASGKGLEWVGRIRSKSNNYATYYAESVKDRFTISRDDSKNTAYLQMNSLKTEDTAVYYCTRARFYYSDYGYAMDYWGQGTLVTVSS
VL: DIVMTQSPDSLAVSLGERATINCRSSKSLLHSNGNTYLYWYQQKPGQPPKLLIYRMSNLASGVPDRFSGSGSGTDFTLTISSLQAEDVAVYYCMQHLEYPLTFGQGTKLEIKR
B20: h10A11 IGKV4-1/IGHV3-73 S62T (antibody, name in Kabat numbering, V domains shown)
VH: EVQLVESGGGLVQPGGSLKLSCAASGFAFNTYALYWVRQASGKGLEWVGRIRSKSNNYATYYADTVKDRFTISRDDSKNTAYLQMNSLKTEDTAVYYCTRARFYYSDYGYAMDYWGQGTLVTVSS
VL: DIVMTQSPDSLAVSLGERATINCRSSKSLLHSNGNTYLYWYQQKPGQPPKLLIYRMSNLASGVPDRFSGSGSGTDFTLTISSLQAEDVAVYYCMQHLEYPLTFGQGTKLEIKR
B21: h10A11 IGKV4-1/IGHV3-73 V63L (antibody, name in Kabat numbering, V domains shown)
VH: EVQLVESGGGLVQPGGSLKLSCAASGFAFNTYALYWVRQASGKGLEWVGRIRSKSNNYATYYADSLKDRFTISRDDSKNTAYLQMNSLKTEDTAVYYCTRARFYYSDYGYAMDYWGQGTLVTVSS
VL: DIVMTQSPDSLAVSLGERATINCRSSKSLLHSNGNTYLYWYQQKPGQPPKLLIYRMSNLASGVPDRFSGSGSGTDFTLTISSLQAEDVAVYYCMQHLEYPLTFGQGTKLEIKR

Target: human CCR8 (human) (UniProt P51685)
Assay: cell-based or functional assay

Sequence of human CCR8 (human) (P51685 whole entry): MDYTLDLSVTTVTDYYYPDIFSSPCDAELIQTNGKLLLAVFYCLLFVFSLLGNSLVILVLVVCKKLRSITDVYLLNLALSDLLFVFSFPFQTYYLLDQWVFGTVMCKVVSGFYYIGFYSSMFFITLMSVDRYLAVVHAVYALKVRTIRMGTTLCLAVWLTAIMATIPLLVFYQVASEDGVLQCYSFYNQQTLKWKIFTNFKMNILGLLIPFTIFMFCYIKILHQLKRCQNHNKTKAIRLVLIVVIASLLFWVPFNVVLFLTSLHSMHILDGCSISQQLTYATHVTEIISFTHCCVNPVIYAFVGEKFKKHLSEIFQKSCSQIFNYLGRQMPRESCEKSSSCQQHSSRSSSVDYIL

In order of falling IC50 ratio (WT IC50/mutant IC50):
1. B20  1.6
2. B18  0.67
3. B21  0.56
4. B14  0.55
5. B11  0.53
6. B16  0.5
7. B15  0.49
8. B10  0.47
9. B13  0.47
10. B2  0.44
11. B4  0.43
12. B19  0.25
13. B7  0.22
14. B9  0.22
15. B1  0.17
16. B6  0.12
17. B12  0.03
18. B17  0.03

B3 and B5 cannot be ordered by IC50 (n.d.: 10 nM or more): greater than 10 nM for the first, greater than 10 nM for the second.

Binder B8 has an IC50 (n.d.: 10 nM or more) greater than 10 nM.
